Target: the molecule itself
Experiment: cryo-EM structure

B1: human INF2 (inverted formin-2) residues 469-1249 (domain or fragment)
chain: not shown
Does B1 bind?
Result: binds

Source: publication PMC11375965 (Nature, 2024)
